Reference: patent US9187525B2, “Methods of treating ophthalmic diseases using NPR-B agonists” (Shire Orphan Therapies GmbH, dated 2015)
Numbered stars: 1 amine (or outer) side, 2 acyl side, 3 side chain; on linkers, the order of the positions; unused ones are H or OH. Square brackets hold non-standard residues; d marks the D form. Primed or numbered codes have the meaning given here. Ends that are not written are not given here. * marks the point of attachment. Pro(trans-4-NH2) = O=C([C@@H]1C[C@@H](N[*:3])CN1[*:1])[*:2]; Sni = (S)-nipecotic acid, O=C([C@H]1CCCN([*:1])C1)[*:2]; cPrCO(1-aminomethyl) = O=C(C1(CN[*:1])CC1)[*:2]; Hyp = O=C(O)[C@@H]1C[C@@H](O)CN1; dTle = CC(C)(C)[C@@H](N)C(=O)O; NMeL = CN[C@@H](CC(C)C)C(=O)O; Chg = N[C@H](C(=O)O)C1CCCCC1; Hyp(2581) = not defined here; NMeK = CN[C@@H](CCCCN)C(=O)O; orn(Me2) = not defined here; Nle = CCCC[C@H](N)C(=O)O; Octanoyl = CCCCCCCC(=O)*; dAbu = CC[C@@H](N)C(=O)O; 1270 = not defined here; 1860 = not defined here; 2797 = not defined here; 3791 = not defined here; 3806 = not defined here; 4956 = not defined here; 504 = not defined here; 559 = not defined here; 565 = not defined here; 933 = not defined here; leu = not defined here; Ac3c = NC1(C(=O)O)CC1; Occ = octanoic acid

T1: natriuretic peptide receptor-B (human)
T1 chain: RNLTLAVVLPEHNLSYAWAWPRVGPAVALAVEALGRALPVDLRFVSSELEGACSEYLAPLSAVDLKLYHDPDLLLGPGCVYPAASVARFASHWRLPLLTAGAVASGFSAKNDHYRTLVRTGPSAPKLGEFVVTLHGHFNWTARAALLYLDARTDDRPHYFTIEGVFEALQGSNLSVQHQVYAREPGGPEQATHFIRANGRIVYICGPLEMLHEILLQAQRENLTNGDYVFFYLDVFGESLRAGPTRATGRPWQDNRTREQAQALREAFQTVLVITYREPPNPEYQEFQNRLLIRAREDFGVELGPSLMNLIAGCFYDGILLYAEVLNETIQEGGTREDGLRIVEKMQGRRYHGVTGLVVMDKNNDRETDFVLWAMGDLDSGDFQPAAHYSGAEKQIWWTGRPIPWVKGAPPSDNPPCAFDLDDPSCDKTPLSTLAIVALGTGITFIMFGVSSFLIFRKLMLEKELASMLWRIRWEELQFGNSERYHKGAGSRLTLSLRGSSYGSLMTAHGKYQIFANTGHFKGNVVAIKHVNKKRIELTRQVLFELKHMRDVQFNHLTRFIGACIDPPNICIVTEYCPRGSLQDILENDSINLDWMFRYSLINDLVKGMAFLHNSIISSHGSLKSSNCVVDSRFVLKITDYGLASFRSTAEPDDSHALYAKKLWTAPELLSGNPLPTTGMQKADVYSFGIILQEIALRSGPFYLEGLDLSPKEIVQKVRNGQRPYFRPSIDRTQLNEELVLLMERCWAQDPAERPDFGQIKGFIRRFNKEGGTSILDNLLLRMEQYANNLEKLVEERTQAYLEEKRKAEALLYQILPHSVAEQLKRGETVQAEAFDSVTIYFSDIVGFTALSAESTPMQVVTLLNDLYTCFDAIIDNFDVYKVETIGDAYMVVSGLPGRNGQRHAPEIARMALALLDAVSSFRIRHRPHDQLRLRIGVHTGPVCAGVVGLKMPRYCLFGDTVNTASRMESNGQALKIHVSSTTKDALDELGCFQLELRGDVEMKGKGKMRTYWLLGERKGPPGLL


Target: T1, natriuretic peptide receptor-B
Test: cell-based or functional assay

Binder | EC50 group, cGMP in GTM-3 cells [µM]
Octanoyl-AAFGLKLDR[3791] (not fully specified (some residues); printed as Occ-ala-ala-Phe-Gly-Leu-Lys-Leu-Asp-Arg-3791; reading uncertain) [JAL-0792] | ≤ 15
[Occ][Sni]F[leu]LX[NMeL]DRI-NH2 (not fully specified (residue 6); printed as Occ-Sni-Phe-leu-Leu-Hyp(Asp(-))-Nml-Asp-Arg-Ile-NH2) [JAL-1928] | ≤ 5
Octanoyl-AAFGLKLDR[559] (not fully specified (some residues); printed as Occ-ala-ala-Phe-Gly-Leu-Lys-Leu-Asp-Arg-559; reading uncertain) [JAL-0791] | ≤ 15
Octanoyl-[dV]FGLKLDRI-NH2 [JAL-0756] | ≤ 15
[Occ][Ac3c]FGLKLDRI-NH2 [JAL-0761] | ≤ 15
4956-AFGLKLDRI-NH2 (not fully specified (some residues); printed as 4956-ala-Phe-Gly-Leu-Lys-Leu-Asp-Arg-Ile-NH2; reading uncertain) [JAL-0788] | ≤ 15
[Occ][cPrCO(1-aminomethyl)]FGLKLDRI-NH2 [JAL-0760] | ≤ 15
933-AFGLKLDRI-NH2 (not fully specified (some residues); printed as 933-ala-Phe-Gly-Leu-Lys-Leu-Asp-Arg-Ile-NH2; reading uncertain) [JAL-0786] | ≤ 15
Octanoyl-[dA][dA]FGLKLDRI-NH2 (not fully specified (some residues); printed as Occ-ala-ala-Phe-Gly-Leu-Lys-leu-Asp-Arg-Ile-NH2) [JAL-0769] | ≤ 15
[Occ][Sni]F[orn(Me2)]L[Hyp][NMeL]DRI-OH (reading uncertain; also: printed as Occ-Sni-Phe-orn(Me2)-Leu-Hyp-Nml-Asp-Arg-Ile-OH) [JAL-1931] | ≤ 5
[Occ][Sni]F[orn(Me2)]L[Pro(trans-4-NH2)][NMeL]DRI-NH2 (reading uncertain; also: printed as Occ-Sni-Phe-orn(Me2)-Leu-Tap-Nml-Asp-Arg-Ile-NH2) [JAL-1936] | ≤ 1
Octanoyl-[dA][dA]FGLPLDRI-NH2 [JAL-0781_01] | ≤ 5
[Occ][Sni]F[leu]L[Hyp][NMeL]TRI-NH2 (reading uncertain; also: printed as Occ-Sni-Phe-leu-Leu-Hyp-Nml-Thr-Arg-Ile-NH2) [JAL-1932] | ≤ 1
[Occ][Sni]F[leu]LX[NMeL]DRI-NH2 (not fully specified (residue 6); printed as Occ-Sni-Phe-leu-Leu-Tap(Asp(-))-Nml-Asp-Arg-Ile-NH2) [JAL-1935] | ≤ 5
XAAFGLKVDRI (not fully specified (residue 1, C-terminus); printed as Occ-ala-ala-Phe-Gly-Leu-Lys-Val-Asp-Arg-Ile-NH2) [JAL-0771] | ≤ 15
Octanoyl-[dAbu]FGLKLDRI-NH2 [JAL-0762] | ≤ 15

Binder | EC50 group, cGMP in GTM-3 cells [µM]
Octanoyl-[dA][dA]FGLKLDR[2797] (reading uncertain; also: printed as Occ-ala-ala-Phe-Gly-Leu-Lys-Leu-Asp-Arg-2797) [JAL-0754] | ≤ 5
Octanoyl-[dA][dA]FGLK[Nle]DRI-NH2 [JAL-0775] | ≤ 15
Octanoyl-[dA][dA]FGLK[Chg]DRI-NH2 [JAL-0772] | ≤ 15
[Occ][Sni]F[leu]L[Hyp(2581)][NMeL]DRI-NH2 (reading uncertain; also: printed as Occ-Sni-Phe-leu-Leu-Hyp(2581)-Nml-Asp-Arg-Ile-NH2) [JAL-1929] | ≤ 5
Octanoyl-AAFGL[NMeK]LDRI-NH2 (not fully specified (some residues); printed as Occ-ala-ala-Phe-Gly-Leu-Nmk-Leu-Asp-Arg-Ile-) [JAL-0782] | ≤ 15
Octanoyl-[dA][dA]FGLK[NMeL]DRI-NH2 [JAL-0776] | ≤ 15
Octanoyl-AAFGLKLDR[1860] (not fully specified (some residues); printed as Occ-ala-ala-Phe-Gly-Leu-Lys-Leu-Asp-Arg-1860; reading uncertain) [JAL-0789] | ≤ 5
Octanoyl-[dA][dA]FGLKIDRI-NH2 [JAL-0770] | ≤ 15
[Occ][dTle]FGLKLDRI-NH2 [JAL-0758] | ≤ 15
Octanoyl-[dA][dA]FGLKLDR[565] (reading uncertain; also: printed as Occ-ala-ala-Phe-Gly-Leu-Lys-Leu-Asp-Arg-565) [JAL-0752] | ≤ 5
Octanoyl-[dA][dA]FGLKLDR[3806] (reading uncertain; also: printed as Occ-ala-ala-Phe-Gly-Leu-Lys-Leu-Asp-Arg-3806) [JAL-0751] | ≤ 15
Octanoyl-AAFGLKLDR[504] (not fully specified (some residues); printed as Occ-ala-ala-Phe-Gly-Leu-Lys-Leu-Asp-Arg-504; reading uncertain) [JAL-0790] | ≤ 15
Octanoyl-[dS]FGLKLDRI-NH2 [JAL-0763] | ≤ 15
[Occ][Sni]F[leu]L[Hyp][NMeL]DRI-OH (reading uncertain; also: printed as Occ-Sni-Phe-leu-Leu-Hyp-Nml-Asp-Arg-Ile-OH) [JAL-1930] | ≤ 5
1270-AFGLKLDRI-NH2 (not fully specified (some residues); printed as 1270-ala-Phe-Gly-Leu-Lys-Leu-Asp-Arg-Ile-NH2; reading uncertain) [JAL-0787] | ≤ 15
